Results: patent US11773143B2, “Conformational epitopes in respiratory syncytial virus G protein central conserved region” (priority 2017, dated 2023)
Where no end group is shown, it is not given here.

T1: CX3CR1 (Homo sapiens, UniProt P49238)
T1 construct: THP-1 cells (a human leukemia monocytic cell line) washed twice and suspended in serum-free RPMI 1640 media; endogenous in cells; host or cells: THP-1
T1 sequence (P49238 1-355): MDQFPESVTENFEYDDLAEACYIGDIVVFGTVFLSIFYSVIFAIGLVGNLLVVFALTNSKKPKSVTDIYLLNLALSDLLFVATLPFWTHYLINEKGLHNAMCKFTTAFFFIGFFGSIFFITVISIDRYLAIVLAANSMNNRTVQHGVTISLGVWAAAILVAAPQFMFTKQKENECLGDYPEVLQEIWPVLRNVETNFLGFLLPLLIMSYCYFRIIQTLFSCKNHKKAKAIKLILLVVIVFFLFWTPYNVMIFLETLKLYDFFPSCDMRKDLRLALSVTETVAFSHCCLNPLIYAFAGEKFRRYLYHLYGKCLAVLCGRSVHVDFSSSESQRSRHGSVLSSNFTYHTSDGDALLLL


Assays:
[1] = biological target: T1, CX3CR1; assay: Chemotaxis assay: RSV G modulation of CX3CR1, receptor-mediated chemotaxis of THP-1 cells (transwell); format: cell-based; conditions: for Chemotactic activity: RSV G (CCR) variants, chemotaxis assay of Example 4, duplicate assays, standard deviations in parentheses
Procedure: An in vitro assay for RSV G modulation of CX3CR1 measures receptor mediated chemotaxis of human monocyte THP-1 cells {Tripp, R. A. et al. Nature Immunology (2001) 2:732-738}. […]
In more detail, the assay was performed using a transwell insert plate with an 8 µm pore size. Approximately 2 million log-phase THP-1 cells (a human leukemia monocytic cell line) washed twice and suspended in serum-free RPMI 1640 media were added to the upper chamber of the insert plate. Negative control was serum-free media alone to which serum-free media containing 25 nM mAb was added to the lower chamber. As a positive control, media containing 10% FBS was added to the lower chamber. RSV G[ecto] or RSV G[161-197] samples were added to the lower chamber at a final concentration of 5 nM in serum-free media. For samples with RSV G[161-197] and mAbs, RSV G[161-197] was pre-incubated with 5-molar excess mAb for 20 min at room temperature, and then added to serum-free media in the lower chamber, for a final concentration of 5 nM RSV G[161-197] and 25 nM mAb. For samples with anti-CX3CR1 antibody, 2 μL 1 mg/mL anti-CX3CR1 rabbit polyclonal antibody (ThermoFisher Scientific Cat #PA5-19910) was incubated with THP-1 cells for 30 minutes in the upper chamber before being placed into the well. The assembled plates were incubated in a CO2 incubator at 37° C. for 5 h. Cells migrated to the lower chamber were counted, and the chemotactic indices were determined by comparing the fold-increase in cell migration toward the chemoattractant to cell migration toward serum-free media alone. Experiments were performed in at least four biological replicates.
Determination of structures of RSV G CCR protein in complex with the high affinity antibodies 2D10 and 3D3 shown in FIG. 4A-B provide a roadmap to design RSV G immunogens to disable CX3CR1 binding without disrupting the ability to generate high-affinity mAb epitopes. Specifically, six highly conserved amino acids have been identified whose side-chains make no molecular contacts with mAbs 3D3 and 2D10, so they can be substituted without impacting generation of high affinity mAbs similar to these mAbs. These residues are therefore candidates for substitution in order to interfere with binding to CX3CR1. Generally, providing an alteration in charge (charge switch) and/or a change in size or shape resulting in a steric hinderance (steric clash) would be expected to result in a negative impact on such binding. […] Six representative mutants have been tested for their impact on CX3CR1 function as measured by the chemotaxis assay described in Example 4. Table 4 summarizes the results of duplicate assays (with standard deviations) using the standard one letter abbreviations for the amino acid at the indicated residue.

[2] = test system: RSV; conditions: mice, day 5 post-inoculation, vs isotype control; cited from earlier work
[3] = test system: RSV; conditions: in vitro; cited from earlier work
[4] = biological target: RSV G protein (Human respiratory syncytial virus A, UniProt P03423); conditions: read-out: affinity; mAb binding to RSV G protein; cited from earlier work
Sequence of RSV G protein (P03423 whole entry): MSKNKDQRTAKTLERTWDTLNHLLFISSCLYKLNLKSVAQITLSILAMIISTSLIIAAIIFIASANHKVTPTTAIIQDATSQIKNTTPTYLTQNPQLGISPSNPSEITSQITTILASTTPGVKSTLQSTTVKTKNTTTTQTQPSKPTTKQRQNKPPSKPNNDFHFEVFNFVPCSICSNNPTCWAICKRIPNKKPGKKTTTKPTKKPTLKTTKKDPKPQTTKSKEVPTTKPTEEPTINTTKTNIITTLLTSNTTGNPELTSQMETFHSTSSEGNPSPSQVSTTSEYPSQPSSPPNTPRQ

Row | Molecule | Chemotactic activity [1] | other results
1 | H164→Y: RSV G (CCR) variant, H164 to Y, steric clash (NDFYFEVFNFVPCSICSNNPTCWAICKRIPNKKPGKK; not fully specified (bridges); cysteine pairing not given here) | 3.8 (0.4) | –
2 | E166→K: RSV G (CCR) variant, E166 to K, charge switch (NDFHFKVFNFVPCSICSNNPTCWAICKRIPNKKPGKK; not fully specified (bridges); cysteine pairing not given here) | 1.6 (0.7) | –
3 | Synagis: humanized mouse mAb against RSV F protein | – | effect on total BAL cells [2]: did not reduce total BAL cells
4 | K192→E + K193 →E: RSV G (CCR) double variant, charge switch (NDFHFEVFNFVPCSICSNNPTCWAICKRIPNEEPGKK; not fully specified (bridges); cysteine pairing not given here) | 2.5 (0.7) | –
5 | E166→K + K187 →E: RSV G (CCR) double variant, charge switch (NDFHFKVFNFVPCSICSNNPTCWAICERIPNKKPGKK; not fully specified (bridges); cysteine pairing not given here) | 1.8 (0.1) | –
6 | Wild type RSV G (CCR) (NDFHFEVFNFVPCSICSNNPTCWAICKRIPNKKPGKK; not fully specified (bridges); cysteine pairing not given here) | 6.2 (0.7) | –
7 | S177→R: RSV G (CCR) variant, substitution of arginine for serine at position 177 (NDFHFEVFNFVPCSICRNNPTCWAICKRIPNKKPGKK; not fully specified (bridges); cysteine pairing not given here) | 0.9 (0.2) | –
8 | S177→W: RSV G (CCR) variant, S177 to W, steric clash (NDFHFEVFNFVPCSICWNNPTCWAICKRIPNKKPGKK; not fully specified (bridges); cysteine pairing not given here) | 1.2 (0.4) | –
9 | 3D3: high affinity, broadly neutralizing human mAb binding RSV G protein CCR (antibody, V domains shown) VH: EEQLVESGGGLVQPGRSLRLSCVGSGLRFEEHAMHWVRQAPGRGLEWVSGISWNSGSVGYADSVKGRFTTSRDNAKDILFLEMNTLRSEDTALYFCAIMVATTKNDFHYYKDVWGKGTTVTVSS VL: QIVLTQSPATLSLSPGERATLSCRASQSVSNHLAWYQQKPGQAPRLLIYETSNRATGIPPRFSGSGSGTDFTLTISSLEPEDFAVYYCQQRNNWYTFGQGTKLEIK | – | Blocking of RSV G[161-197]-induced chemotaxis by pre-incubation with mAb ([1]; THP-1 cells, level comparable to anti-CX3CR1 polyclonal serum): blocked; viral neutralizing activity [3]: broad neutralizing activity; Kd [4]: 1.1 pM
